Test in all cases: AVEXIS screen signal:noise (double-corrected)
Assay [1] concerns the target T1, ADP334.
T1 chain: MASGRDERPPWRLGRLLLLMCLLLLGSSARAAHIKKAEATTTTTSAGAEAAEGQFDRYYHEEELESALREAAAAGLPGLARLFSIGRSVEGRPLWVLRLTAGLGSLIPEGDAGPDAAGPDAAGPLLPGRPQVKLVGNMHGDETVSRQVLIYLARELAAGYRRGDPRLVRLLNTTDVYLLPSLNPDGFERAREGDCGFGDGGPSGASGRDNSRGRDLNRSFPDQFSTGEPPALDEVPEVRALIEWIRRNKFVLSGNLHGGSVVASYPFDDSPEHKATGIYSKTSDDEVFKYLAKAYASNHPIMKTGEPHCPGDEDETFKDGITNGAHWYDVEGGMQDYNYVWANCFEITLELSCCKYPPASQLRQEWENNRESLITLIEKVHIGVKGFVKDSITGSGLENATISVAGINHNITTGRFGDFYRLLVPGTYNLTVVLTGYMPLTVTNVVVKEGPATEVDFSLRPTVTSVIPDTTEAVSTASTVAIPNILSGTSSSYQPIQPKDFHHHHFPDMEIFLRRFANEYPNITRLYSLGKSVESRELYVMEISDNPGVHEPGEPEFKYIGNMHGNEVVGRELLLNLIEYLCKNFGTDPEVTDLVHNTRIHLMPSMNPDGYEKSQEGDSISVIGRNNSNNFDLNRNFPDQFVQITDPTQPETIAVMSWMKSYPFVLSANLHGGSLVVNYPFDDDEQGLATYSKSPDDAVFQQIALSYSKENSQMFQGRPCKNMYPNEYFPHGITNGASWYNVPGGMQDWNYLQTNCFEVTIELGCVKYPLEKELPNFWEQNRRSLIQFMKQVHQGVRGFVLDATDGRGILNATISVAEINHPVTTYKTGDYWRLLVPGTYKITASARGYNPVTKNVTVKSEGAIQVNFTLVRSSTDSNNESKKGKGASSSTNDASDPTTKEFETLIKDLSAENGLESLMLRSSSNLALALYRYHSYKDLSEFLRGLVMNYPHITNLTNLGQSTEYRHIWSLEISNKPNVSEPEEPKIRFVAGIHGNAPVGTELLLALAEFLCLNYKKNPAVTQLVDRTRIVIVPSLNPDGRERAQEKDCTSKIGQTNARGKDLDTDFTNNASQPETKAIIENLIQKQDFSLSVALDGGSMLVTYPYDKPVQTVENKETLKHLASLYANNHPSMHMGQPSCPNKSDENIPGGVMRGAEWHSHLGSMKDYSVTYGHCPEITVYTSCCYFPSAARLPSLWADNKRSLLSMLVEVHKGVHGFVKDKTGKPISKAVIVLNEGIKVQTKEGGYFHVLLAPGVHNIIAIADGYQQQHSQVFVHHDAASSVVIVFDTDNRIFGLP

Assay [2] concerns the target T2, ADP389.
T2 chain: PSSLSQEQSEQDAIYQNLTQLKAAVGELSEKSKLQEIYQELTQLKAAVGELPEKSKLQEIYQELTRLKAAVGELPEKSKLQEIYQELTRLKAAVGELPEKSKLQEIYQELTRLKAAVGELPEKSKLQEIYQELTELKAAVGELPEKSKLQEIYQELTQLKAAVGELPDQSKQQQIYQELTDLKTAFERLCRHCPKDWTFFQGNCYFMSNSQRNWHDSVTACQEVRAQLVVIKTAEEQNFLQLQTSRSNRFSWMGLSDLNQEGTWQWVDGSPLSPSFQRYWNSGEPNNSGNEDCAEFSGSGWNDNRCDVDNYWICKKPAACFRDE

The target of assay [3] is T3, ADP320.
T3 chain: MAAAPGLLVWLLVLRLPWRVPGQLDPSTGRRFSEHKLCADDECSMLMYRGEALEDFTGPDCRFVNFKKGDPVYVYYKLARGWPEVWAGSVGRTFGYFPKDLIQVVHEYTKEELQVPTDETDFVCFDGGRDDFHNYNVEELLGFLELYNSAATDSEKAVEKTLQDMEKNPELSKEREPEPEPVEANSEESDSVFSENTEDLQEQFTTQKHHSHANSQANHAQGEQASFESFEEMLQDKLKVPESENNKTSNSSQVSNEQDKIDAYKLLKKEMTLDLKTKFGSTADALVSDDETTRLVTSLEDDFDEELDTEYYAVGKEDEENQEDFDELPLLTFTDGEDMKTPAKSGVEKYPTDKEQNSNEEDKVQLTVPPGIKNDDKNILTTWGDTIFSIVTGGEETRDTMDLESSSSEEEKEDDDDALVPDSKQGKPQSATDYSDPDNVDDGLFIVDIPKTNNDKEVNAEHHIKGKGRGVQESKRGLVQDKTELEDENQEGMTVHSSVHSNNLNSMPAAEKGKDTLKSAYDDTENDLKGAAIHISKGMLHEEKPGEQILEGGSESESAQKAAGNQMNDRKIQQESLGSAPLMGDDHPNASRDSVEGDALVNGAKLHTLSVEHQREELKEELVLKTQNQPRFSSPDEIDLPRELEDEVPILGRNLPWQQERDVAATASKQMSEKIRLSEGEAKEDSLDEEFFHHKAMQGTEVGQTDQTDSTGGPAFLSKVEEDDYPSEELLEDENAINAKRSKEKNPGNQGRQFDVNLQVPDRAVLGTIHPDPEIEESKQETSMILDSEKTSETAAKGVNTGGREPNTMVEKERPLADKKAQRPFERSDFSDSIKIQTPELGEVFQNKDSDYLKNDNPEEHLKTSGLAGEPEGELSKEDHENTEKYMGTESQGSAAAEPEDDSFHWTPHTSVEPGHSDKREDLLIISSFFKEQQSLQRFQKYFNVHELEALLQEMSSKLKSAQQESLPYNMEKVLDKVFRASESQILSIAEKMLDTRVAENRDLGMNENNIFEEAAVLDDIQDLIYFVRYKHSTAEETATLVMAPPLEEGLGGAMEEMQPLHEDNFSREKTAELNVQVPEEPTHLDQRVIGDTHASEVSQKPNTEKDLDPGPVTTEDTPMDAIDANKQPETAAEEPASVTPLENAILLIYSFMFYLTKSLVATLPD

The target of assay [4] is ADP326.
Assay [5] has as its target T4, ADP375.
T4 chain: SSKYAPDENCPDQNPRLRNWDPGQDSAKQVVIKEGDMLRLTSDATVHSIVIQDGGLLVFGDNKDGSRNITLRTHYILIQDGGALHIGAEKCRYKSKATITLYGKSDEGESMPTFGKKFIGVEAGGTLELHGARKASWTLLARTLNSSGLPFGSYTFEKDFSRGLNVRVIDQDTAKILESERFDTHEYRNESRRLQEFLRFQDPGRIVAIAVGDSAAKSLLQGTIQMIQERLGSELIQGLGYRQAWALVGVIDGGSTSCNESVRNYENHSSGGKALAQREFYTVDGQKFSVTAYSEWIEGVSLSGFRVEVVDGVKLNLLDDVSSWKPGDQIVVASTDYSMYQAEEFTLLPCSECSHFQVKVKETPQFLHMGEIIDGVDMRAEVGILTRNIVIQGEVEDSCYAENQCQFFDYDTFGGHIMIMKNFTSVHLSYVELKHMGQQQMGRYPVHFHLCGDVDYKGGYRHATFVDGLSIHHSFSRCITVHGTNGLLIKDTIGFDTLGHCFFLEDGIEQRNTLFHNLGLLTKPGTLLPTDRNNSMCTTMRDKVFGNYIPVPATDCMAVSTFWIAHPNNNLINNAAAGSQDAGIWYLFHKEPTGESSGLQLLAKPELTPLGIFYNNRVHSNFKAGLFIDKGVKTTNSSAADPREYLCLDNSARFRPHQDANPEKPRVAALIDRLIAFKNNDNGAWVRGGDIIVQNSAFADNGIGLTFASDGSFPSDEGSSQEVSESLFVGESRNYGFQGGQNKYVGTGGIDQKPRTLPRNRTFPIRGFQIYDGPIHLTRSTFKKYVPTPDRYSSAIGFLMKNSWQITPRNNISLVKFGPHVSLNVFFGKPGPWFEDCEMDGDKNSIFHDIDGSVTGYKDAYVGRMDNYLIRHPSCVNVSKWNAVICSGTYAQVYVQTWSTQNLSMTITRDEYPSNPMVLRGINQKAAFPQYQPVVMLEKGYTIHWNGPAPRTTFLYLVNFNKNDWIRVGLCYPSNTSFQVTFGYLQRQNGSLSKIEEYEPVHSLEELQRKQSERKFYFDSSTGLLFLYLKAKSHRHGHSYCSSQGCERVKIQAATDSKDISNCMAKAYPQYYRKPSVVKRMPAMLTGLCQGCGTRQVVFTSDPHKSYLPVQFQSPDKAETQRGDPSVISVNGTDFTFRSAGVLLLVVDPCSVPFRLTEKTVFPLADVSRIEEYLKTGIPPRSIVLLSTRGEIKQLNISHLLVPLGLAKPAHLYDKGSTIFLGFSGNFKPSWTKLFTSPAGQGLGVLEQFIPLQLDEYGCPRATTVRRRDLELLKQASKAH

B1: ADP172 (protein)
chain: YLEQIKNGISGHYTEDHNIKNNNCISFSDYERSIKNFAISSHAENNYDNIINEYKKIKDINNNINILSSVHRKGRILYDSFLEINKLENDKKEKHEKEDEYEDNDESFLETEEYEDNEDEKYNKDEDDYAESFIETDEYEDNEDDKYNKDEDDYSESFIETDEYDDNEEEQYNKDEDDYTDSFIETDHYENNDDKNEEEEEYNDQDNDYGYNFLETDEYDDSEEYDYDDKEYGESFLEKEEGEEMKDEEMKDEEMKDVEMKDEEMKDEEMKYDEMKNEEMKYDEMKDEVMKDEEMKDEVMKDEEMKDEQMKYEEFKNEESKNEESKNEESKNEESKNEEFKNEESKNEEFKNEEFKNEDMSYDEYMGYKKKEEDESYNTFNGAKKNNAANSFLEKDLQGDSDDELHSTFYSKNVDKENYDDKNIFYGYSDNDDESFLETDSYEEYEDEDKDVEDEYEESFLQNDEKKMVFYDLYKPEENEAYYEKKQKKEEKEEKEEKEQSLNKQNDMEDQEDNEEYKFEEENKEDLLDVQQDEELPSEGKQKVKGKSFDNEHLNEIQNVADVHAFIQKDMKYLDDLIDEEQTIKDAVKKSAYKGNKKLGNNKKSQMILEEEPEENFEEDADEELNKLMEQEKNIVDKEIKNSKANKANKKLQFNNANKQNKMYMKNEYNNKAKNNKNNKFEQQNYDESYMDDDYEQNEEFNDNNQAEDMKETNELDKINDELLTDQGPNEDTLLENNNKIFDNKFVAHKKREKSISPHSYQKVSTKVQNKEDMENKEEKQLINDEAAMTAEELVELENTEDVNTPTMVETEEIDSDENGNKAS
modifications: bait human Fc-tagged dimer; N-glycosylation sequons mutated in Plasmodium baits
B1: the binding score in assay [1] was found to be 13.1; in assay [2], 7.86.

B2: ADP193 (protein)
chain: GEEKLTKFDPVMIKEGELFGEVSYDCEYSGFLEIENDDILYYCFFVGEDDHNGLLLRKFHMDDMVWGIPMEVLITRKKINLYILTVDYILSKLILIYSFDEKIRITVFNNYMEESVMSEKISINYEILYKANMISYITYFYKNKKSLCVCGMNRNENILCTFSFDYGLTMKDDHTIEFFLKKKIPLGHYKMQVTFKETEVYFNLYNDLNEANFYELKCVKKQDEYICDIMNKIRETQEYNYKRYTYPSSEHNKYYNDHHNKQPQGKQGQQGGAPLPNLGEEENNFIYKHIVRNKYFQMIVFQKDQKCYLAWSFNSLNINDEITKEISSVPCSNVASYYRQERLIVTLKKNQLGSRNHFFLIYEKLTEKGVGCEFGVGGSLYVTKTFMNNACDMDINNMNVATTNYDEINFALIIPLSFQLNYATCFIWEENVDNNEERSSLYYLEEYTNEKEDIKVYTFYFYKYILIYKNFKKSTCTFESKNNEKLYISFRGDTYYKEYNCNILLDSCDFFLHTQSKINIAYDDDVWQVSEELYDGFVMYNGAYVSLYDVLSRSNAHGLIYIDGKENNAAINLNNIKNNNNNNNNNNNNNNAANNNNIANNANSNNAFGEHEKVITIIIPYGIPSTRTIKIEFLNKQNNEEKRWAYLRLQKNEYIMKKVIGINSADIFDLSYKYYKYNQEKIKFILNDFSETTYLGFICQTKEEIKKSLCTISLVDHSHKNMAINNLFKTNNHILPFLYDQSPPRKIQPYNQIISEFRFVLFKNFHLFLQENKINYILLKCMCSSSSSYINTQKNIELSYLITNEQVSHDFIHTPGILIRPRTNIAHNDYQKNNKGNHKGNNKANNKANDKDSNNNANNNANKNGNNHNDNNNNNQNKDIDINSNYAIHNNNEKVKRTKKKINDAPYDKQDEELPSYDFNDLLHEKKNGASVFDFNFVLFLFICITFF
modifications: bait human Fc-tagged dimer; N-glycosylation sequons mutated in Plasmodium baits
Take B2: the figures for the binding score in assay [3], in assay [4] and in assay [5] were 7.53, 9.3 and 8.14, respectively.

The record behind these values is paper PMC11098746 (2024).
